Assay [1] has as its target T1, GDF15 mutant W228R (wrist region), albumin fusion (human, UniProt Q99988 195-308).
T1 construct: not shown: albumin fusion partner
T1 chain: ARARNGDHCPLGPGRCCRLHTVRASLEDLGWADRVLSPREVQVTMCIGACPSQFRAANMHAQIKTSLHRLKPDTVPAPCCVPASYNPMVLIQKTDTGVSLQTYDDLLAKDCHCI
In words: direct ELISA on coated albumin-fusion GDF15 variant. The procedure:
(§1) Antibody epitope was determined by a direct ELISA method with GDF15 mutants. Albumin fusion GDF15 mutants were coated in wells of a 96-well EIA plate. After blocking, serially diluted anti-hGDF15 human antibodies were added to the GDF15-coated wells, followed by incubation at an ambient temperature for a few hours. Antibody binding was detected using an anti-human IgG antibody conjugated with horseradish peroxidase (HRP) and HRP substrate.

Assay [2] has as its target T2, GDF15 mutant Q247R (wrist region), albumin fusion (human, UniProt Q99988 195-308).
T2 construct: not shown: albumin fusion partner
T2 chain: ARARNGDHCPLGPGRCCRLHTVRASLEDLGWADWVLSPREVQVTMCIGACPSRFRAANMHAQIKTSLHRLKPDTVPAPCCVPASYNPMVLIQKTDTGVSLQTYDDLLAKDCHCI
The description is as above. The procedure: as §1

The target in assay [3] is T3, GDF15 mutant M253R (wrist region), albumin fusion (human, UniProt Q99988 195-308).
T3 construct: not shown: albumin fusion partner
T3 chain: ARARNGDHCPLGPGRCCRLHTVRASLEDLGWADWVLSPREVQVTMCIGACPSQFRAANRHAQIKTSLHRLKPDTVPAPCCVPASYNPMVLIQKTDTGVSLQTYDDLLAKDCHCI
Described as above. The procedure: as §1

The target in assay [4] is T4, GDF15 mutant D289R (finger tip region), albumin fusion (human, UniProt Q99988 195-308).
T4 construct: not shown: albumin fusion partner
T4 chain: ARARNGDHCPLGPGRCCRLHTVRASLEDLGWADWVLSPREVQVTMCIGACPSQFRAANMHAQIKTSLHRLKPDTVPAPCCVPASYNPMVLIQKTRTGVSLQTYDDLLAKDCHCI
The description is as above. The method, then: as §1

For assay [5], the target named is T5, GDF15 mutant S278R (back-of-hand), albumin fusion (human, UniProt Q99988 195-308).
T5 construct: not shown: albumin fusion partner
T5 chain: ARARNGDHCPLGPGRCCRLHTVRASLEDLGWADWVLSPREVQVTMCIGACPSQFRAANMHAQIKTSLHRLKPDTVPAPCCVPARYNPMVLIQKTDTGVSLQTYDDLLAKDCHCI
Described as above. The method, then:
as §1

For assay [6], the target named is T6, GDF15 mutant L294R (knuckle region), albumin fusion (human, UniProt Q99988 195-308).
T6 construct: not shown: albumin fusion partner
T6 chain: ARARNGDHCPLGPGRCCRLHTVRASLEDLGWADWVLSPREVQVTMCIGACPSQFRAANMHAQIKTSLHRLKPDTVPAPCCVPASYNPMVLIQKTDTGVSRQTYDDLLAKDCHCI
In words: direct ELISA: albumin fusion GDF15 mutant coated on the plate, serially diluted antibody, anti-human IgG-HRP detection. The procedure:
as §1

In assay [7] the target is T7, GDF15 mutant I285R (knuckle region), albumin fusion (human, UniProt Q99988 195-308).
T7 construct: not shown: albumin fusion partner
T7 chain: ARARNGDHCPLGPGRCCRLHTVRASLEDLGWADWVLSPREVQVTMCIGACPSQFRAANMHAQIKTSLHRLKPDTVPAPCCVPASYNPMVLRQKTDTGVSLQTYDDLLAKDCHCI
Put plainly: direct ELISA on coated albumin-fusion GDF15 mutant. The procedure: as §1

The target of assay [8] is T8, GDF15 mutant S231R (knuckle region), albumin fusion (human, UniProt Q99988 195-308).
T8 construct: not shown: albumin fusion partner
T8 chain: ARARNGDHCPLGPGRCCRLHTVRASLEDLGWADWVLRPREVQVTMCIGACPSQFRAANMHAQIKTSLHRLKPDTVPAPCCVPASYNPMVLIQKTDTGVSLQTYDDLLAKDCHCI
In words: direct ELISA on coated albumin-fusion GDF15 mutant. The method, then:
as §1

Assay [9] addresses T9, Human GDF15 native: naturally produced human GDF15 purchased from Peprotech (human, UniProt Q99988 195-308).
T9 construct: Bought protein
T9 sequence: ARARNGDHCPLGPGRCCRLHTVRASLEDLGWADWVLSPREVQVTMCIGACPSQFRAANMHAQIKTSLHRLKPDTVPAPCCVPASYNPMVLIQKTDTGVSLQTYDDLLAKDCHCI
Put plainly: Biacore SPR (rounded from Table 2, human GDF15 native). The procedure: (§2) Anti-human Fc capture antibody was immobilized at 0.5 μg/ml on CMS chip in all four flow cells to achieve 8000 to 12,000 resonance units (RU) on the surface. Anti-hGDF15 antibodies were captured at flow rate […], at 0.25 to 0.5 μg/ml on the chip to get about 30 RU in flow cells 2, 3 and 4. GDF15 ligand was flowed at […] over captured antibodies and reference flow cell 1 for 600 and 1200 seconds contact time. Eight doses serially diluted 1 to 2, ranging from 20 to 0.156 nM, were tested. All cycles were repeated twice, regenerated between cycles with 3M MgCl₂ at flow […], 20 seconds contact time. Data were normalized by subtracting reference flow cell results. Data were fit with 1:1 Kinetics model with RI (bulk refractive index) set constant at 0.

The target in assay [10] is T9, Human GDF15 native: naturally produced …. In words: Biacore SPR, IgG captured via anti-human Fc, GDF15 in flow. The method, then:
(§3) Biacore assay is based on surface plasmon resonance (SPR) and were used to determine the binding affinity of antibodies to GDF15.
as §2

Assay [11] has as its target T10, Cyno His-GDF15: HIS-tagged cyno GDF15 (cynomolgus, UniProt G7PWZ3 197-308, limits assumed).
T10 construct: not shown: His tag
T10 sequence (looked up): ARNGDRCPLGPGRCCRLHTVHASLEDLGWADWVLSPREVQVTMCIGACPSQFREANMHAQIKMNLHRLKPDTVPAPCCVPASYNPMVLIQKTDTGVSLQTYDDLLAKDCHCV
The assay is described as above. The method, then: as §3, §2

Assay [12] deals with T11, Rat GDF15 HIS: HIS-tagged rat GDF15 (rat, UniProt Q9Z0J6 189-303, limits assumed).
T11 construct: also called Rat His-GDF15; not shown: His tag
T11 sequence (looked up): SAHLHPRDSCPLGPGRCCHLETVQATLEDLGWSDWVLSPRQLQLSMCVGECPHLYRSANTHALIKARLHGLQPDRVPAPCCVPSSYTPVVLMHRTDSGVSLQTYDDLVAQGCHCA
Described as above. The procedure: as §3, §2

Assay [13] has as its target T12, Human His-GDF15: HIS-tagged human GDF15 (human, UniProt Q99988 195-308).
T12 construct: not shown: His tag
T12 sequence: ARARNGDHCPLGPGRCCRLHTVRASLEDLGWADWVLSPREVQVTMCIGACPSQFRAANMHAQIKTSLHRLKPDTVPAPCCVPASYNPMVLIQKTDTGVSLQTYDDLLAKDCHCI
The description is as above. The method, then:
as §3, §2

In assay [14] the target is T13, Mouse His-GDF15: HIS-tagged mouse GDF15 (mouse, UniProt Q9Z0J7 189-303).
T13 construct: not shown: His tag
T13 sequence (looked up): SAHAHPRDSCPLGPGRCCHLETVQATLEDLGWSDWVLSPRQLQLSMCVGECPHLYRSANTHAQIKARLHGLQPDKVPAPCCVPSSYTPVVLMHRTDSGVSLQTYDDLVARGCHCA
Described as above. The method, then: as §3, §2

Assay [15] has as its target T8, GDF15 mutant S231R (knuckle region), …. In words: direct ELISA: albumin fusion GDF15 mutant coated on the plate, serially diluted antibody, anti-human IgG-HRP detection. The procedure:
as §1

The target in assay [16] is T9, Human GDF15 native: naturally produced …. In words: Biacore SPR (rounded from Table 2, human GDF15 native); Biacore, not SET. The method, then:
as §2

The target of assay [17] is T6, GDF15 mutant L294R (knuckle region), …. Put plainly: direct ELISA on coated albumin-fusion GDF15 mutant. The method, then: as §1

B1: ABGDF15-C (antibody, human IgG1, lambda, V domains shown)
VH: QVQLVQSGAEVKKPGSSVKVSCKASGGTFRSYAVSWVRQAPGQGLEWMGGIIPIFGTANYAQKFQGRVTITADESTSTAYMELSSLRSEDTAVYYCARGPIIMGYQFGLFDHWGQGTLVTVSS
VL: SYELTQPPSVSVSPGQTASITCSGDNIGSHIVSWYQQKPGQSPVLVIYDKSNRPSGIPERFSGSNSGNTATLTISGTQAMDEADYYCQTWDSIGSVVFGGGTKLTVLG
notes: captured through anti-human Fc in the Biacore assay
Take B1: the binding result in [1], in [2], in assay [3], in [4], in assay [5] and in assay [6] was “binds” throughout. In addition, the binding result in assay [7] and in assay [8] was “no binding” in each case. Besides, the Kd in assay [9] came out at 0.066 nM; in [10], 0.0656 nM; in assay [11], 0.065 nM; in [12] it was 0.0618 nM; in assay [13] it was 0.0422 nM; in assay [14], 0.116 nM. Also, the off-rate constant (koff) in assay [10] was found to be 0.000388 s⁻¹; in assay [11], 0.000322 s⁻¹; in [12], 0.000483 s⁻¹; in assay [13] it was 0.000468 s⁻¹; in assay [14], 0.000505 s⁻¹. In addition, the kon in [10] turned out to be 5.92e+06 M⁻¹ s⁻¹; in [11] it was 4.96e+06 M⁻¹ s⁻¹; in assay [12], 7.81e+06 M⁻¹ s⁻¹; in assay [13], 1.11e+07 M⁻¹ s⁻¹; in assay [14], 4.37e+06 M⁻¹ s⁻¹.

B2: ABGDF15-A (antibody, human IgG1, kappa, V domains shown)
VH: EVQLVQSGAEVKKPGESLKISCKGSGYSFTDYWISWVRQMPGKGLEWMGIIDPSGSYTIYSPSFQGQVTISADKSISTAYLQWSSLKASDTAMYYCARVSYYGGYFDIWGQGTLVTVSS
VL: DIQMTQSPSSLSASVGDRVTITCRASQSISNNLNWYQQKPGKAPKLLIYAASNLQSGVPSRFSGSGSGTDFTLTISSLQPEDFATYYCFQLDHSPFTFGQGTKVEIKR
notes: as for B1
Regarding B2, the binding result in assay [1], in assay [2], in [3], in assay [4], in assay [5] and in assay [15] was “binds” each time. The binding result in assay [7] and in [17] was “no binding” each time. For the same molecule, the Kd in assay [16] was 0.011 nM; in [10], 0.0113 nM; in assay [11], 0.0134 nM; in assay [12], 0.0232 nM; in assay [13] it was 0.00262 nM; in assay [14], 0.0568 nM. Moreover, the koff is 0.000374 s⁻¹ in assay [10]; 0.000278 s⁻¹ in assay [11]; 0.000451 s⁻¹ in [12]; 0.000247 s⁻¹ in assay [13]; 0.000613 s⁻¹ in [14]. Further, the kon in [10] came out at 3.3e+07 M⁻¹ s⁻¹; in assay [11], 2.07e+07 M⁻¹ s⁻¹; in assay [12] it was 1.95e+07 M⁻¹ s⁻¹; in assay [13], 9.42e+07 M⁻¹ s⁻¹; in [14], 1.08e+07 M⁻¹ s⁻¹.

Values taken from patent US20190135908A1 (Novartis, published 2019).
